This series can be described thus: self-splicing fitness, log relative to wild type (ln ratio); higher = more splicing; Tetrahymena group I intron in knt gene, E. coli kanamycin selection, DiMSum; sequences stand for … in CUCUCU…GGAGGGAAAAGUUAUCAGGCAUGCACCUGGUAGCUAGUCUUUAAACCAAUAGAUUGCAUCGGUUUAAAAGGCAAGACCGUCAAAUUGCGGGAAAGGGGUCAACAGCCGUUCAGUACCAAGUCUCAGGGGAAACUUUGAGAUGGCCUUGCAAAGGGUAUGGUAAUAAGCUGACGGACAUGGUCCUAACCACGCAGCCAAGUCCUAAGUCAACAGAUCUUCUGUUGAUAUGGAUGCAGUUCACAGACUAAAUGUCGGUCGGGGAAGAUGUAUUCUUCUCAUAAGAUAUAGUCGGACCUCUCCUUAAUGGGAGCUAGCGGAUGAAGUGAUGCAACACUGGAGCCGCUGGGAACUAAUUUGUAUGCGAAAGUAUAUUGAUUAGUUUUGGAGUACUCGUGGUCG
A digest of the protocol: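 Six replicate transformations of E. coli BL21(DE3) with a pET-22b(+) library were grown overnight at 37°C or 30°C. The library randomised all eight P1ex-region intron nucleotides, the intron lying in the knt kanamycin-resistance gene, and plates were LB agar with or without 25 μg/mL kanamycin plus 100 μg/mL carbenicillin, 50 μM IPTG and 0.2% rhamnose. Pooled colonies were amplicon-sequenced on an Illumina HiSeq 2500, and fitness is the DiMSum error-weighted combination of wild-type-normalised replicate fold changes, kanamycin versus none.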

± gives the uncertainty stated by the source.

As to GUUAAGCAAUAUUACGGUUG, the “self-splicing fitness (ln)” value reads like this: (30 °C) -3.12 ± 0.28; (37 °C) -1.22 ± 0.24.
For GUUAAGCAAUAUUACGUACC, the “self-splicing fitness (ln)” value (30 °C) is -0.386 ± 0.29.
Take GUUAAGCAAUAUUACGUAGA: the “self-splicing fitness (ln)” value is, setting by setting: (30 °C) -3.06 ± 0.16; (37 °C) -0.537 ± 0.12.
Consider GUUAAGCAAUAUUACGUUUA, for which the “self-splicing fitness (ln)” value is -2.74 ± 0.15 (30 °C) and -1.61 ± 0.11 (37 °C).
For GUUCAGCAAUAUUACGAUGG the same measures were -3.81 ± 0.29 and -2.31 ± 0.25.
Taken in the same sequence, the figures for GUUCAGCAAUAUUACGAUGU were -0.419 ± 0.075 and 0.31 ± 0.11.
Turning to GUUCAGCAAUAUUACGCCAU, the “self-splicing fitness (ln)” value was -2.66 ± 0.21 (30 °C) and -1.99 ± 0.14 (37 °C).
As to GUUCAGCAAUAUUACGCCGA, the “self-splicing fitness (ln)” value (30 °C) is -2.43 ± 0.31 and the “self-splicing fitness (ln)” value (37 °C) was -1.34 ± 0.29.
For GUUCAGCAAUAUUACGCCGG the same measures were -2.55 ± 0.21 and -0.806 ± 0.28.
Taken in the same sequence, the figures for GUUCAGCAAUAUUACGCGCC were -1.96 ± 0.31 and -1.43 ± 0.34.
For GUUCAGCAAUAUUACGCGUU the same measures were -0.588 ± 0.062 and 0.431 ± 0.067.
GUUCAGCAAUAUUACGCUAU: the “self-splicing fitness (ln)” value is, setting by setting: (30 °C) -1.32 ± 0.081; (37 °C) -0.451 ± 0.092.
Taken in the same sequence, the figures for GUUCAGCAAUAUUACGCUGA were -2.16 ± 0.24 and -2.43 ± 0.31.
Regarding GUUCAGCAAUAUUACGGCCA, the “self-splicing fitness (ln)” value by setting is: (30 °C) -0.626 ± 0.12; (37 °C) -0.426 ± 0.15.
Taken in the same sequence, the figures for GUUCAGCAAUAUUACGGCGA were -1.16 ± 0.19 and 0.354 ± 0.18.
Taken in the same sequence, the figures for GUUCAGCAAUAUUACGGUAA were -1.21 ± 0.07 and -0.563 ± 0.07.
For GUUCAGCAAUAUUACGUACA the same measures were -1.13 ± 0.11 and -0.94 ± 0.11.
For the sequence GUUCAGCAAUAUUACGUGCU, where the note is “37 °C”, the “self-splicing fitness (ln)” value is -2.98 ± 0.28.
On to GUUCAGCAAUAUUACGUGGA, for which the “self-splicing fitness (ln)” value was -3.5 ± 0.41 (30 °C) and -1.42 ± 0.2 (37 °C).
Taken in the same sequence, the figures for GUUCAGCAAUAUUACGUGGG were -2.07 ± 0.13 and -1.92 ± 0.15.
Taken in the same sequence, the figures for GUUCAGCAAUAUUACGUUCC were -2.79 ± 0.29 and -1.78 ± 0.41.
On to GUUCAGCAAUAUUACGUUUG, for which the “self-splicing fitness (ln)” value runs as follows: (30 °C) -2.75 ± 0.15; (37 °C) -1.22 ± 0.14.
For GUUGAGCAAUAUUACGACCU the same measures were -2.63 ± 0.16 and -1.56 ± 0.17.
In the case of GUUGAGCAAUAUUACGACGA, the “self-splicing fitness (ln)” value (30 °C) was -3.3 ± 0.32 and the “self-splicing fitness (ln)” value (37 °C) is -2.2 ± 0.27.
For GUUGAGCAAUAUUACGACGC the same measures were -1.95 ± 0.22 and 1.05 ± 0.26.
For GUUGAGCAAUAUUACGACUG, the “self-splicing fitness (ln)” value by setting is: (30 °C) -2.97 ± 0.32; (37 °C) 0.138 ± 0.22.
For GUUGAGCAAUAUUACGCACC the same measures were -2.94 ± 0.16 and -1.67 ± 0.14.
Taken in the same sequence, the figures for GUUGAGCAAUAUUACGGCGA were -2.81 ± 0.23 and -2.44 ± 0.2.
Taken in the same sequence, the figures for GUUGAGCAAUAUUACGGGCA were -3.29 ± 0.23 and -0.813 ± 0.16.
Take GUUGAGCAAUAUUACGGGUG: the “self-splicing fitness (ln)” value reads like this: (30 °C) -3.62 ± 0.38; (37 °C) -2.85 ± 0.47.
For GUUGAGCAAUAUUACGGUUG the same measures were -3.56 ± 0.35 and -1.38 ± 0.38.
For GUUGAGCAAUAUUACGUAAG, the “self-splicing fitness (ln)” value was -2.08 ± 0.18 (30 °C) and -1.17 ± 0.19 (37 °C).
For GUUGAGCAAUAUUACGUCGU, for the setting “30 °C”, the “self-splicing fitness (ln)” value is -3.25 ± 0.39.
As for GUUGAGCAAUAUUACGUGAA, the “self-splicing fitness (ln)” value (37 °C) is -1.76 ± 0.22.
Turning to GUUGAGCAAUAUUACGUGCC, the “self-splicing fitness (ln)” value (30 °C) is -3.02 ± 0.45.
Consider GUUGAGCAAUAUUACGUGUU, for which the “self-splicing fitness (ln)” value was -3.15 ± 0.25 (30 °C) and -2.29 ± 0.3 (37 °C).
Taken in the same sequence, the figures for GUUGAGCAAUAUUACGUUAC were -2.2 ± 0.13 and -2.21 ± 0.24.
Turning to GUUUAGCAAUAUUACGAAUC, the “self-splicing fitness (ln)” value (37 °C) is -0.202 ± 0.45.
With GUUUAGCAAUAUUACGACUA, the “self-splicing fitness (ln)” value (30 °C) was -0.518 ± 0.18 and the “self-splicing fitness (ln)” value (37 °C) is 0.0789 ± 0.15.
For GUUUAGCAAUAUUACGCCCA the same measures were -1.48 ± 0.19 and -0.953 ± 0.33.
With GUUUAGCAAUAUUACGCCGG, where the note is “30 °C”, the “self-splicing fitness (ln)” value is -2.37 ± 0.45.
GUUUAGCAAUAUUACGCCUC: the “self-splicing fitness (ln)” value (30 °C) amounted to 0.228 ± 0.22 and the “self-splicing fitness (ln)” value (37 °C) is -0.7 ± 0.23.
Taken in the same sequence, the figures for GUUUAGCAAUAUUACGCCUG were -2.62 ± 0.25 and -1.39 ± 0.26.
Consider GUUUAGCAAUAUUACGGAAA, for which the “self-splicing fitness (ln)” value is -2.38 ± 0.37 (30 °C) and -2.07 ± 0.28 (37 °C).
In the case of GUUUAGCAAUAUUACGGAUG, the “self-splicing fitness (ln)” value is -3.5 ± 0.3 (30 °C) and -1.57 ± 0.22 (37 °C).
As for GUUUAGCAAUAUUACGGCAU, the “self-splicing fitness (ln)” value (30 °C) was determined as 0.0778 ± 0.14 and the “self-splicing fitness (ln)” value (37 °C) is -0.182 ± 0.14.
For GUUUAGCAAUAUUACGGCCA the same measures were -1.35 ± 0.14 and -0.725 ± 0.15.
Taken in the same sequence, the figures for GUUUAGCAAUAUUACGGCUA were -1.45 ± 0.33 and -1.68 ± 0.31.
GUUUAGCAAUAUUACGGGAC: where the note is “37 °C”, the “self-splicing fitness (ln)” value was -1.98 ± 0.39.
Consider GUUUAGCAAUAUUACGGGUC, for which the “self-splicing fitness (ln)” value is, setting by setting: (30 °C) -3.6 ± 0.47; (37 °C) -1.73 ± 0.2.
Taken in the same sequence, the figures for GUUUAGCAAUAUUACGGUAC were -1.22 ± 0.12 and -2.01 ± 0.15.
Taken in the same sequence, the figures for GUUUAGCAAUAUUACGUCUG were -2.05 ± 0.18 and -1.84 ± 0.3.
Take GUUUAGCAAUAUUACGUGAU: the “self-splicing fitness (ln)” value was -0.892 ± 0.17 (30 °C) and -0.419 ± 0.12 (37 °C).
Taken in the same sequence, the figures for GUUUAGCAAUAUUACGUUAC were -4.44 ± 0.28 and -2.33 ± 0.18.
Taken in the same sequence, the figures for GUUUAGCAAUAUUACGUUAU were -2.88 ± 0.23 and -0.357 ± 0.16.
Taken in the same sequence, the figures for UAAAAGCAAUAUUACGAAGU were -2.95 ± 0.29 and -2.23 ± 0.21.
For UAAAAGCAAUAUUACGAGUG, the “self-splicing fitness (ln)” value reads like this: (30 °C) -0.615 ± 0.057; (37 °C) 0.0674 ± 0.084.
For UAAAAGCAAUAUUACGCAUA the same measures were -1.44 ± 0.088 and -0.782 ± 0.1.
Take UAAAAGCAAUAUUACGCCAG: the “self-splicing fitness (ln)” value was -1.34 ± 0.12 (30 °C) and -0.458 ± 0.17 (37 °C).
Taken in the same sequence, the figures for UAAAAGCAAUAUUACGCCCU were -0.622 ± 0.095 and 0.457 ± 0.15.
For UAAAAGCAAUAUUACGCCGG the same measures were -0.134 ± 0.11 and 0.0922 ± 0.14.
Taken in the same sequence, the figures for UAAAAGCAAUAUUACGCUUA were -1.53 ± 0.11 and -1.03 ± 0.12.

For the origin of these results see the supplement of paper PMC7877785.
